Experimental data from the Human Domainome abundance scans (Beltran et al. 2025).
± gives the uncertainty stated by the source.

Test: abundance fitness (aPCA) (normalised: wild type 0, dead -1); higher = more abundant; growth selection in yeast, the domain comes from the species named
Settings: Homo sapiens

**Q.** With “Lipoamide acyltransferase component of branched-chain alpha-keto acid dehydrogenase complex, mitochondrial I205Y, P11182” as the substance, how does the abundance fitness read?
**A.** The abundance fitness was -0.349 ± 0.15.

**Q.** For “Lipoamide acyltransferase component of branched-chain alpha-keto acid dehydrogenase complex, mitochondrial K187A, P11182”, which abundance fitness is on record?
**A.** The abundance fitness was -0.14 ± 0.04.

**Q.** For “Lipoamide acyltransferase component of branched-chain alpha-keto acid dehydrogenase complex, mitochondrial K187C, P11182”, which abundance fitness is on record?
**A.** Its abundance fitness is -0.251 ± 0.099.

**Q.** For “Lipoamide acyltransferase component of branched-chain alpha-keto acid dehydrogenase complex, mitochondrial K187D, P11182”, which abundance fitness is on record?
**A.** The abundance fitness was 0.009 ± 0.048.

**Q.** For “Lipoamide acyltransferase component of branched-chain alpha-keto acid dehydrogenase complex, mitochondrial K187E, P11182”, which abundance fitness is on record?
**A.** Its abundance fitness is -0.133 ± 0.046.

**Q.** With “Lipoamide acyltransferase component of branched-chain alpha-keto acid dehydrogenase complex, mitochondrial K187G, P11182” as the substance, how does the abundance fitness read?
**A.** Its abundance fitness is -0.304 ± 0.036.

**Q.** Which abundance fitness does the source give for “Lipoamide acyltransferase component of branched-chain alpha-keto acid dehydrogenase complex, mitochondrial K187H, P11182” here?
**A.** The abundance fitness was -0.144 ± 0.057.

**Q.** Which abundance fitness does the source give for “Lipoamide acyltransferase component of branched-chain alpha-keto acid dehydrogenase complex, mitochondrial K187I, P11182” here?
**A.** Its abundance fitness is -0.078 ± 0.076.

**Q.** With “Lipoamide acyltransferase component of branched-chain alpha-keto acid dehydrogenase complex, mitochondrial K187L, P11182” as the substance, how does the abundance fitness read?
**A.** The abundance fitness was -0.126 ± 0.053.

**Q.** With “Lipoamide acyltransferase component of branched-chain alpha-keto acid dehydrogenase complex, mitochondrial K187M, P11182” as the substance, how does the abundance fitness read?
**A.** The abundance fitness was -0.075 ± 0.12.

**Q.** For “Lipoamide acyltransferase component of branched-chain alpha-keto acid dehydrogenase complex, mitochondrial K187N, P11182”, which abundance fitness is on record?
**A.** The abundance fitness was -0.026 ± 0.072.

**Q.** With “Lipoamide acyltransferase component of branched-chain alpha-keto acid dehydrogenase complex, mitochondrial K187P, P11182” as the substance, how does the abundance fitness read?
**A.** Its abundance fitness is 0.022 ± 0.049.

**Q.** For “Lipoamide acyltransferase component of branched-chain alpha-keto acid dehydrogenase complex, mitochondrial K187Q, P11182”, which abundance fitness is on record?
**A.** Its abundance fitness is -0.06 ± 0.045.

**Q.** For “Lipoamide acyltransferase component of branched-chain alpha-keto acid dehydrogenase complex, mitochondrial K187R, P11182”, which abundance fitness is on record?
**A.** The abundance fitness was -0.04 ± 0.039.

**Q.** With “Lipoamide acyltransferase component of branched-chain alpha-keto acid dehydrogenase complex, mitochondrial K187S, P11182” as the substance, how does the abundance fitness read?
**A.** The abundance fitness was -0.045 ± 0.054.

**Q.** For “Lipoamide acyltransferase component of branched-chain alpha-keto acid dehydrogenase complex, mitochondrial K187T, P11182”, which abundance fitness is on record?
**A.** The abundance fitness was -0.097 ± 0.057.

**Q.** Which abundance fitness does the source give for “Lipoamide acyltransferase component of branched-chain alpha-keto acid dehydrogenase complex, mitochondrial K187V, P11182” here?
**A.** Its abundance fitness is -0.139 ± 0.099.

**Q.** For “Lipoamide acyltransferase component of branched-chain alpha-keto acid dehydrogenase complex, mitochondrial K187W, P11182”, which abundance fitness is on record?
**A.** The abundance fitness was -0.538 ± 0.05.

**Q.** For “Lipoamide acyltransferase component of branched-chain alpha-keto acid dehydrogenase complex, mitochondrial K196A, P11182”, which abundance fitness is on record?
**A.** Its abundance fitness is -0.054 ± 0.037.

**Q.** Which abundance fitness does the source give for “Lipoamide acyltransferase component of branched-chain alpha-keto acid dehydrogenase complex, mitochondrial K196C, P11182” here?
**A.** Its abundance fitness is -0.22 ± 0.051.

**Q.** With “Lipoamide acyltransferase component of branched-chain alpha-keto acid dehydrogenase complex, mitochondrial K196F, P11182” as the substance, how does the abundance fitness read?
**A.** The abundance fitness was -0.408 ± 0.062.

**Q.** With “Lipoamide acyltransferase component of branched-chain alpha-keto acid dehydrogenase complex, mitochondrial K196G, P11182” as the substance, how does the abundance fitness read?
**A.** The abundance fitness was -0.159 ± 0.036.

**Q.** With “Lipoamide acyltransferase component of branched-chain alpha-keto acid dehydrogenase complex, mitochondrial K196H, P11182” as the substance, how does the abundance fitness read?
**A.** Its abundance fitness is -0.17 ± 0.062.

**Q.** Which abundance fitness does the source give for “Lipoamide acyltransferase component of branched-chain alpha-keto acid dehydrogenase complex, mitochondrial K196I, P11182” here?
**A.** Its abundance fitness is -0.185 ± 0.068.

**Q.** For “Lipoamide acyltransferase component of branched-chain alpha-keto acid dehydrogenase complex, mitochondrial K196L, P11182”, which abundance fitness is on record?
**A.** The abundance fitness was -0.175 ± 0.04.

**Q.** For “Lipoamide acyltransferase component of branched-chain alpha-keto acid dehydrogenase complex, mitochondrial K196M, P11182”, which abundance fitness is on record?
**A.** Its abundance fitness is -0.142 ± 0.053.

**Q.** Which abundance fitness does the source give for “Lipoamide acyltransferase component of branched-chain alpha-keto acid dehydrogenase complex, mitochondrial K196N, P11182” here?
**A.** The abundance fitness was -0.053 ± 0.076.

**Q.** For “Lipoamide acyltransferase component of branched-chain alpha-keto acid dehydrogenase complex, mitochondrial K196P, P11182”, which abundance fitness is on record?
**A.** The abundance fitness was -0.051 ± 0.047.

**Q.** For “Lipoamide acyltransferase component of branched-chain alpha-keto acid dehydrogenase complex, mitochondrial K196Q, P11182”, which abundance fitness is on record?
**A.** The abundance fitness was -0.077 ± 0.047.

**Q.** With “Lipoamide acyltransferase component of branched-chain alpha-keto acid dehydrogenase complex, mitochondrial K196R, P11182” as the substance, how does the abundance fitness read?
**A.** The abundance fitness was -0.026 ± 0.039.

**Q.** For “Lipoamide acyltransferase component of branched-chain alpha-keto acid dehydrogenase complex, mitochondrial K196S, P11182”, which abundance fitness is on record?
**A.** Its abundance fitness is -0.121 ± 0.044.

**Q.** Which abundance fitness does the source give for “Lipoamide acyltransferase component of branched-chain alpha-keto acid dehydrogenase complex, mitochondrial K196T, P11182” here?
**A.** The abundance fitness was -0.079 ± 0.044.

**Q.** With “Lipoamide acyltransferase component of branched-chain alpha-keto acid dehydrogenase complex, mitochondrial K196V, P11182” as the substance, how does the abundance fitness read?
**A.** The abundance fitness was -0.124 ± 0.037.

**Q.** Which abundance fitness does the source give for “Lipoamide acyltransferase component of branched-chain alpha-keto acid dehydrogenase complex, mitochondrial K196W, P11182” here?
**A.** The abundance fitness was -0.52 ± 0.053.

**Q.** Which abundance fitness does the source give for “Lipoamide acyltransferase component of branched-chain alpha-keto acid dehydrogenase complex, mitochondrial K196Y, P11182” here?
**A.** Its abundance fitness is -0.222 ± 0.058.

**Q.** For “Lipoamide acyltransferase component of branched-chain alpha-keto acid dehydrogenase complex, mitochondrial K202A, P11182”, which abundance fitness is on record?
**A.** Its abundance fitness is 0.039 ± 0.042.

**Q.** For “Lipoamide acyltransferase component of branched-chain alpha-keto acid dehydrogenase complex, mitochondrial K202C, P11182”, which abundance fitness is on record?
**A.** The abundance fitness was -0.282 ± 0.086.

**Q.** Which abundance fitness does the source give for “Lipoamide acyltransferase component of branched-chain alpha-keto acid dehydrogenase complex, mitochondrial K202D, P11182” here?
**A.** Its abundance fitness is -0.215 ± 0.058.

**Q.** With “Lipoamide acyltransferase component of branched-chain alpha-keto acid dehydrogenase complex, mitochondrial K202E, P11182” as the substance, how does the abundance fitness read?
**A.** The abundance fitness was 0.069 ± 0.052.

**Q.** Which abundance fitness does the source give for “Lipoamide acyltransferase component of branched-chain alpha-keto acid dehydrogenase complex, mitochondrial K202G, P11182” here?
**A.** The abundance fitness was -0.135 ± 0.038.

**Q.** Which abundance fitness does the source give for “Lipoamide acyltransferase component of branched-chain alpha-keto acid dehydrogenase complex, mitochondrial K202I, P11182” here?
**A.** The abundance fitness was -0.017 ± 0.17.

**Q.** For “Lipoamide acyltransferase component of branched-chain alpha-keto acid dehydrogenase complex, mitochondrial K202L, P11182”, which abundance fitness is on record?
**A.** Its abundance fitness is -0.118 ± 0.047.

**Q.** For “Lipoamide acyltransferase component of branched-chain alpha-keto acid dehydrogenase complex, mitochondrial K202M, P11182”, which abundance fitness is on record?
**A.** Its abundance fitness is -0.089 ± 0.053.

**Q.** For “Lipoamide acyltransferase component of branched-chain alpha-keto acid dehydrogenase complex, mitochondrial K202P, P11182”, which abundance fitness is on record?
**A.** The abundance fitness was 0.011 ± 0.052.

**Q.** With “Lipoamide acyltransferase component of branched-chain alpha-keto acid dehydrogenase complex, mitochondrial K202Q, P11182” as the substance, how does the abundance fitness read?
**A.** Its abundance fitness is -0.088 ± 0.049.

**Q.** For “Lipoamide acyltransferase component of branched-chain alpha-keto acid dehydrogenase complex, mitochondrial K202R, P11182”, which abundance fitness is on record?
**A.** Its abundance fitness is -0.001 ± 0.037.

**Q.** For “Lipoamide acyltransferase component of branched-chain alpha-keto acid dehydrogenase complex, mitochondrial K202S, P11182”, which abundance fitness is on record?
**A.** Its abundance fitness is -0.124 ± 0.049.

**Q.** For “Lipoamide acyltransferase component of branched-chain alpha-keto acid dehydrogenase complex, mitochondrial K202T, P11182”, which abundance fitness is on record?
**A.** The abundance fitness was -0.211 ± 0.062.
